{"source": "paper PMC7851689", "about": "“Expanding the Enzyme Repertoire for Sugar Nucleotide Epimerization: the CDP-Tyvelose 2-Epimerase from Thermodesulfatator atlanticus for Glucose/Mannose Interconversion” (Applied and Environmental Microbiology, 2021)", "molecules": {"B1": {"name": "TaCPa2E (Thermodesulfatator atlanticus) (protein)", "chain": "MKYLITGGCGFLGSNLASEVLRKREELIIFDNLYRIGSYENLEWLKQQGDFRFVHGDIRNREDIEKVIKEEKPDVIFHLAGQVAMTTSIENPRLDFEVNALGTFNLLDAVRKYSPESIIIYSSTNKVYGDLGWVRYEETETRYIAPDFPNGFPESIPLDFHSPYGCSKGAADQYMLDFCRIYGIKTVVFRHSSMYGGRQFATYDQGWIGWFCLKAIEIKKGLLKEPFTIHGNGKQVRDVLYADDMIELYFKTIENIEKAKGEAFNIGGGMENSLSLLELFSLLEKELDIKMRYKKLPWRESDQKIFVADIRKAQKLIGWQPKVSKYNGIQKMLEWIKKLV"}}, "key": {"[1]": {"target": "CDP-tyvelose 2-epimerase-like enzyme from Thermodesulfatator atlanticus (TaCPa2E) (Thermodesulfatator atlanticus)", "assay": "SEC; gel filtration of the purified C-terminally His-tagged protein; conditions not shown (Fig. S3 and S4, supplemental material)"}, "purified protein [2]": {"substrate": "Nc1ccn([C@@H]2O[C@H](COP(=O)(O)OP(=O)(O)O[C@H]3O[C@H](CO)[C@@H](O)[C@H](O)[C@H]3O)[C@@H](O)[C@H]2O)c(=O)n1", "assay": "purified protein", "settings": "pH 7.5; 60.0 °C"}, "purified protein [3]": {"substrate": "Nc1ccn([C@@H]2O[C@H](COP(=O)(O)OP(=O)(O)O[C@H]3O[C@H](CO)[C@@H](O)[C@H](O)[C@@H]3O)[C@@H](O)[C@H]2O)c(=O)n1", "assay": "purified protein", "settings": "pH 7.5; 60.0 °C"}}}
{"molecule": "CDP-tyvelose 2-epimerase-like enzyme from Thermodesulfatator atlanticus (TaCPa2E)", "values": [{"measurement": "stoichiometry N", "setting": "[1]", "result": 2}]}
{"molecule": "B1", "values": [{"measurement": "Km", "setting": "purified protein [2]", "result": "320 ± 20", "unit": "µM"}, {"measurement": "Km", "setting": "purified protein [3]", "result": "310 ± 10", "unit": "µM"}]}
